Three molecules from US20250090677A1 (MULTITUDE THERAPEUTICS, published 2025) can be followed below.

One test concerns the target T1, Human CDH6-ECD-His (human, UniProt P55285 54-615).
T1 construct: extracellular domain; Bought protein; also called human CDH6-ECD-His recombinant protein; Human CDH6-EC6D-His; not shown: His tag
T1 sequence (looked up): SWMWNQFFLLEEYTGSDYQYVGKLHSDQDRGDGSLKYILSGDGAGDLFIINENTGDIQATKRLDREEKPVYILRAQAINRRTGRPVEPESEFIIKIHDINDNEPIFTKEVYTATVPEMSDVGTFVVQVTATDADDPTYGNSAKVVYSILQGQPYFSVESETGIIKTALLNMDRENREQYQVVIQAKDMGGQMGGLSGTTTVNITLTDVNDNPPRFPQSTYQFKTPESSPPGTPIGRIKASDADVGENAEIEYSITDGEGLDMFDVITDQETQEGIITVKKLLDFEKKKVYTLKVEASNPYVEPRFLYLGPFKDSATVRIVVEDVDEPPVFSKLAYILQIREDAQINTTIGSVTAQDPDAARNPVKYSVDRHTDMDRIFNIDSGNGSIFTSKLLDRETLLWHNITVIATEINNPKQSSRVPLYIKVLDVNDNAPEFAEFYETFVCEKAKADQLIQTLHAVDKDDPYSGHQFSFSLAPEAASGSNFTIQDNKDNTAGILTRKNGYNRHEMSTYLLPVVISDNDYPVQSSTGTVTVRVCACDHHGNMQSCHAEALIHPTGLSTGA
Briefly: BLI (Octet), antibody on AHC sensor, antigen 3.13-100 nM, 1:1 model. The protocol:
(§1) Binding affinities of CL069707-H1L1 and Ch069707 were measured using the Octet® system based on Bio-Layer Interferometry (BLI) technique. Antibodies were loaded to AHC (Anti-hIgG Fc Capture) at 100 nM concentration. […] From the six different binding curves obtained from each antigen concentration, binding constants (KD) were calculated based on the 1:1 binding model. CL069707-H1L1 and Ch069707 binds to human CDH6-ECD-His antigen with similar affinity. CL069707-H1L1 binds to human CDH6-ECD-His and cyno monkey CDH6-ECD-His antigens with similar affinity.
A general note: In BLI a coated tip is dipped into the sample, and binding shifts an interference pattern.

For another test, the target named is T2, cyno monkey CDH6-ECD-His (cyno monkey, UniProt A0A2K5TW62 54-615).
T2 construct: extracellular domain; Bought protein; also called Cyno CDH6-ECD-His; not shown: His tag
T2 sequence: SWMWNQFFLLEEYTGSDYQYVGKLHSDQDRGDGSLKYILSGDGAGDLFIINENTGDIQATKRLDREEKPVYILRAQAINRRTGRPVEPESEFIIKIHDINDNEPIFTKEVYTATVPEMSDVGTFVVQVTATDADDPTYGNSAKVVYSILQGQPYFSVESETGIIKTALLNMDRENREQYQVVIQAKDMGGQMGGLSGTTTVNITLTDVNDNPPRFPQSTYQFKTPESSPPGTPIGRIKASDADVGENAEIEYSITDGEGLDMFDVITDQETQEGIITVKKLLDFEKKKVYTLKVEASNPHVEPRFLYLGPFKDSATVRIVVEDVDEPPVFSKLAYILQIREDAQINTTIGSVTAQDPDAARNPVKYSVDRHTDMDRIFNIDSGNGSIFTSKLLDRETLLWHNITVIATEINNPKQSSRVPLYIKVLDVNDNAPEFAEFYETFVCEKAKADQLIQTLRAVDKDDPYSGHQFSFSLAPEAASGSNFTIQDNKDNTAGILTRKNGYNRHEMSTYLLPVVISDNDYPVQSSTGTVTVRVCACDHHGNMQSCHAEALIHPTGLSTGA
The description is as above. The procedure: as §1

For test [1], the target named is T3, CDH6 on the cell surface of OVCAR-3 cells (human ovarian cancer cells) (human, UniProt P55285 54-790).
T3 construct: whole, on cells; also called CDH6-positive human ovarian cancer cell line OVCAR-3
T3 sequence (looked up): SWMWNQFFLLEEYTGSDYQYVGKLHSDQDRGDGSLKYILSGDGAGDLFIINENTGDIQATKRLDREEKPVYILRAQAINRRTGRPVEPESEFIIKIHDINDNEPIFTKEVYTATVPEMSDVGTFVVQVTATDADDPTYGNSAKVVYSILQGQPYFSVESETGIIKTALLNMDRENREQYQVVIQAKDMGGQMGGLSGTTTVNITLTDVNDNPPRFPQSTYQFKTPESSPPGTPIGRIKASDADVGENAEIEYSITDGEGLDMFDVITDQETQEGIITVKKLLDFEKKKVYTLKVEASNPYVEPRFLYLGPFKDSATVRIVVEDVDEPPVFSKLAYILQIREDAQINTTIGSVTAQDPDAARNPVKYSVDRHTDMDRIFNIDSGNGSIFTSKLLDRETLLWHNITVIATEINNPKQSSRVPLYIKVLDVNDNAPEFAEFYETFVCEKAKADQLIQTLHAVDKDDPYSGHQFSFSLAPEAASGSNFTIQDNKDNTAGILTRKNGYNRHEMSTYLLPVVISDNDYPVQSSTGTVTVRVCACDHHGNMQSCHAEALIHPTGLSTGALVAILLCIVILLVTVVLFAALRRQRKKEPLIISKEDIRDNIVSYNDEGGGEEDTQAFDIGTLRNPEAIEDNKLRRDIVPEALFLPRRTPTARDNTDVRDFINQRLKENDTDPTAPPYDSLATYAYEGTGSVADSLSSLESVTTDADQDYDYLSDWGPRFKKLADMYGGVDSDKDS
Put plainly: flow cytometry (FACS) on OVCAR-3 cells, antibody titration, labelled secondary antibody, MFI. The procedure:
The binding EC50 of the humanized antibodies on tumor cell were tested as follow. Human ovarian cancer cell line OVCAR-3(purchased from National Collection of Authenticated Cell Cultures) cell culture was maintained in vitro as independent monolayer cultures at 37° C. in an atmosphere of 5% CO₂. The cells were harvested using trypsin-EDTA partial digestion followed by centrifugation at 1000 rpm for 5 minutes. The cell was resuspended in cold PBS and serial dilution of Ch069707 and CL069707-H1L1, CL069707-H1L2, CL069707-H2L1 and CL069707-H2L2 antibodies were added. Ch069707 antibody was a chimeric antibody. The variable regions were the same as those of CL069707, and the constant region was the same as human IgG1 constant regions (SEQ ID NO: 70 and SEQ ID NO: 71). The cell solutions were mixed, incubated at 4° C. and washed with cold PBS prior to addition of secondary antibody conjugates (for detection purposes). After incubation at 4° C., the cells were washed with PBS, and then subjected to flow cytometry (FACS) analysis.

The target of test [2] is T3, CDH6 on the cell surface of OVCAR-3 …. Described as above. This is another data set of the same source.

Read-outs that look alike come from different tables or passages of the source.

B1: Ch069707 (antibody, human IgG1, kappa, V domains shown)
VH: EVHLVESGGGLVQPKGSLKLSCVASGFTFTTYAMNWVRQAPGKGLEWVARIRIKNNNYATYYADSVTDRFTISRDDSQSMLYLQMNNLKTEDTAMYYCVRPDYGNYGLAYWGQGTLVTVSA
VL: EIVLTQSPTTMAASPGEKITITCSASSSISSHYLHWYQQKPGFSPKLLIYRSFYLASGVPLRFTGSGSGTSYSLTIGTMEAEDVATYYCQQDIVPLTFGAGTKLELKR
notes: also called anti-CDH6 chimeric antibody Ch069707
For orientation: Kd means a measure of binding affinity in units of concentration. As usually defined, the EC50 (read off the curve) is the concentration giving half of the maximal effect. In the case of B1, the Kd in the test with Human CDH6-ECD-His came out at 2.28 nM; with cyno monkey CDH6-ECD-His, 2.19 nM. Further, in test [1], the concentration for a half-maximal effect (EC50 (read off the curve)) is about 0.7 nM.

B2: CL069463-H2L2 (antibody, human IgG1, kappa)
heavy: not shown
light: DIQMTQSPSSLSASVGDRVTITCRASENIYYSLAWYQQKPGKAPKLLIYNANSLKDGVPSRFSGSGSGTDYTMTISSMQPEDFATYYCQQAYDVPPTFGGGTKVEIKRTVAAPSVFIFPPSDEQLKSGTASVVCLLNNFYPREAKVQWKVDNALQSGNSQESVTEQDSKDSTYSLSSTLTLSKADYEKHKVYACEVTHQGLSSPVTKSFNRGEC
notes: Humanized IgG1/kappa
Regarding B2, the “EC50 (read off the curve)” value in test [2] was about 4 nM.

B3: CL069463-H2L3 (antibody, human IgG1, kappa)
heavy: not shown
light: DIQMTQSPSSLSASVGERVTITCRASENIYYSLAWYQQKPGKAPKLLIYNANSLKDGVPSRFSGSGSGTDYTMTISSMQPEDFATYYCQQAYDVPPTFGGGTKVEIKRTVAAPSVFIFPPSDEQLKSGTASVVCLLNNFYPREAKVQWKVDNALQSGNSQESVTEQDSKDSTYSLSSTLTLSKADYEKHKVYACEVTHQGLSSPVTKSFNRGEC
notes: Humanized IgG1/kappa
For the molecule B3, in test [2], the “EC50 (read off the curve)” value was about 3 nM.
